The target of the test is human sPLA2-IIA (Type IIA secreted phospholipase A2) (human) (UniProt P14555). The experiment in a line: cell-based or functional assay.
Chain of human sPLA2-IIA (Type IIA secreted phospholipase A2) (human) (P14555 21-144 limits assumed): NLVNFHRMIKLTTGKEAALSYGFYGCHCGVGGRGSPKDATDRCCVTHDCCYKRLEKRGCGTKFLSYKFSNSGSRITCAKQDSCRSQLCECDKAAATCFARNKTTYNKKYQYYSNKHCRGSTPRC

Consider “c(2NapA)LS(2NapA)R (cyclic (2Nap)LS(2Nap)R) (peptide)”, for which the smallest effective dose, proliferation of unstimulated LNCaP and PC-3 cells (MTS assay, doses 1-100 nM) was determined as 1 nM.
